Measurements reported in patent US20250297019A1.

Legend:
human CCR8 (human) [1] = biological target: human CCR8 (human) (UniProt P51685); test: cell-based or functional assay
human CCR8 (human) [2] = biological target: human CCR8 (human) (UniProt P51685); test: assay not described ('in vitro assays')
[3] = biological target: cynomolgus monkey CCR8 (cynomolgus monkey); test: assay not described ('in vitro assays')
Sequence of cynomolgus monkey CCR8 (cynomolgus monkey) (O97665 other isoform, or with tags, fused parts or gaps): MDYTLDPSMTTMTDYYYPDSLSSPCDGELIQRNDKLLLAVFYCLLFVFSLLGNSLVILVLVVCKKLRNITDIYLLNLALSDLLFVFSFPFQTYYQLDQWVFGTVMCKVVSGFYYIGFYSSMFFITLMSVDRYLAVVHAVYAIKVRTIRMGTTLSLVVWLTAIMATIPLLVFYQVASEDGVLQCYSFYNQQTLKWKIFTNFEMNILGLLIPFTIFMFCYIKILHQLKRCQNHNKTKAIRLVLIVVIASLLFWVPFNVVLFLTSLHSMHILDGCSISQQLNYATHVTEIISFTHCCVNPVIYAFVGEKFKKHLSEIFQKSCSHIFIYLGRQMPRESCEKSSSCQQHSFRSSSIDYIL

IC50 of CCL1 blocking (Ca2+ influx, CHO/hCCR8.Gna15 cells) (human CCR8 (human) [1])	induction fold at plateau (about 40 nM antibody), mFcgRIV Jurkat reporter with CHO/hCCR8 (human CCR8 (human) [1])	induction fold, mFcgRIV Jurkat NFAT-luciferase reporter with CHO/hCCR8, at about 1 nM antibody (human CCR8 (human) [1])	ADCC geometric mean EC50 (calcein release; PBMC effector cells of 8 donors, hCCR8.GNA15 CHO target cells) (human CCR8 (human) [1])	Kd (human CCR8 (human) [2])	Kd [3]	Substance
23.6 nM	11 fold	> 10 .fold				murine anti-human CCR8 mAb L263G8 (Biolegend) (antibody)
			3 ng/mL	32 µM	27 µM	RO7502175 (antibody)
